In data set [1] the target is T1, ABCB6-∆TMD0 (Homo sapiens, UniProt Q9NP58).
T1 sequence (Q9NP58 206-842): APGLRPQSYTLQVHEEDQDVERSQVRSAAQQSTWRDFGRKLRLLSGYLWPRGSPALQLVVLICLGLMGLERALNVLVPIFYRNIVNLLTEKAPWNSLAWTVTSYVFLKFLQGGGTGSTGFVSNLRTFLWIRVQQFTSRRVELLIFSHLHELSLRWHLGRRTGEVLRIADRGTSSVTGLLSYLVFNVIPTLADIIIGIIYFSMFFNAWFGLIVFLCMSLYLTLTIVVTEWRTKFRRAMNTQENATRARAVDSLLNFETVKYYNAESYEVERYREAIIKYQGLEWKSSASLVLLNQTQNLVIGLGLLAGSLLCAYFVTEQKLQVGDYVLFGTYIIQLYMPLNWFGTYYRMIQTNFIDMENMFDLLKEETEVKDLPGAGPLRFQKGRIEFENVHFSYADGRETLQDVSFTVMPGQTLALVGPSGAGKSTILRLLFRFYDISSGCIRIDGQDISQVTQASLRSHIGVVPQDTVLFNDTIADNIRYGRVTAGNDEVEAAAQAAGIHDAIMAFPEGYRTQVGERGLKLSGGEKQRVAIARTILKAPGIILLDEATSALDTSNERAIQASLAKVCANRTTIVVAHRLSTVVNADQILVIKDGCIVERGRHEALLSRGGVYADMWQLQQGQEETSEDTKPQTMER
Kind of data set: microscale thermophoresis, initial fluorescence change. In kind it is binding.

Data set [2] addresses T2, ABCB6-∆TMD0 (Homo sapiens, UniProt Q9NP58, DEL318-324).
T2 sequence (Q9NP58 with tags, fused parts or gaps DEL318-324): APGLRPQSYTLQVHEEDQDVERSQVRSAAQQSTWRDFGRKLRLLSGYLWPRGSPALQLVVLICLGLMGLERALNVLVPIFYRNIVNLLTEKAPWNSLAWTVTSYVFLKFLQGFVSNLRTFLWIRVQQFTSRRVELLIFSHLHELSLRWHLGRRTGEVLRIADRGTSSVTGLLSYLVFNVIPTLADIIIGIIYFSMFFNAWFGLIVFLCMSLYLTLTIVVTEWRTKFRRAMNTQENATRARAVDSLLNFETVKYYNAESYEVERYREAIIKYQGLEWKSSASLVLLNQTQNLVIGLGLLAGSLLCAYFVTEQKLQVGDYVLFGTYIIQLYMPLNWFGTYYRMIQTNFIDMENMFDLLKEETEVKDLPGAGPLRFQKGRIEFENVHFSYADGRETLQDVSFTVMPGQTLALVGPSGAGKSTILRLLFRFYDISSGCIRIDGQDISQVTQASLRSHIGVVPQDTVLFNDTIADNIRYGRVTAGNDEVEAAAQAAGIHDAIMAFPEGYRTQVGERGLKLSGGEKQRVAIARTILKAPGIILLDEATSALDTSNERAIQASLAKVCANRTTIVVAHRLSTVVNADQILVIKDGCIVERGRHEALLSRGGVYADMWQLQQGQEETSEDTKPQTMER
Described as above. It is filed as binding.

Data set [3] concerns the target T3, ABCB6-∆TMD0 (Homo sapiens, UniProt Q9NP58, R435A/R439A/R552A).
T3 sequence (Q9NP58 206-842 R435A/R439A/R552A): T1 sequence (Q9NP58 206-842) with R230A, R234A, R347A
Described as above. In kind it is binding.

Substrate in data set [4]: C=CC1=C(C)C2=Cc3c(C=C)c(C)c4[n]3[Fe]([Cl])[n]3c(c(C)c(CCC(=O)O)c3=CC3=NC(=C4)C(C)=C3CCC(=O)O)=CC1=N2
Kind of data set: purified protein. The following applies: Km from stimulation of ATP hydrolysis, 37°C.

Substrate in data set [5]: CC1=C(CCC(=O)O)c2cc3nc(cc4[nH]c(cc5[nH]c(cc1n2)c(C)c5CCC(=O)O)c(CCC(=O)O)c4C)C(CCC(=O)O)=C3C
Kind of data set: purified protein. The following applies: Km from stimulation of ATP hydrolysis, 37°C, Cymal-6/CHS.

The data set “cryo-EM structure” deals with the molecule itself. Kind of data set: cryo-EM structure.

Where a chain is given by its changes, count along the chain named. Numbers in names are those of the source.

Regarding `CC1=C(CCC(=O)O)c2cc3nc(cc4[nH]c(cc5[nH]c(cc1n2)c(C)c5CCC(=O)O)c(CCC(=O)O)c4C)C(CCC(=O)O)=C3C` [CPIII], the Kd (as a rule, the concentration at which binding is half-saturated) at ABCB6-∆TMD0 [1] was 8.2 ± 0.1 µM; at ABCB6-∆TMD0 [2], 14.1 ± 0.9 µM; at ABCB6-∆TMD0 [3] it was 17.8 ± 3 µM.

B1: ABCB6-∆TMD0 (core region of human ABCB6, residues 206-842) (domain or fragment, UniProt Q9NP58 206-842, looked up)
chain: T1 sequence (Q9NP58 206-842)
For the molecule B1, in the data set “purified protein [4]” (with 1 mM GSH, Cymal-6/CHS), the Km (usually the concentration of substrate that gives half-maximal velocity) is on record as 3 ± 0.3 µM and the kcat amounted to 36 min^–1. For the same molecule, in the data set “purified protein [5]”, the Michaelis-Menten constant (Km) worked out at 19 ± 3.7 µM and the kcat worked out at 25 min^–1. The stoichiometry N (commonly the number of molecules, sites or subunits per partner or assembly) in “cryo-EM structure” is 2.

B2: ABCB6-∆TMD0 (Homo sapiens; Y550A) (protein)
chain: T1 sequence (Q9NP58 206-842) with Y345A
B2: the Km in “purified protein [4]” (with GSH) was determined as 10 µM.

The values above are taken from article PMC9385563 (Molecules and Cells, 2022).
